Test [1] concerns the target CD137 antigen used to stain yeast (human) (UniProt Q07011). The experiment in a line: flow cytometry of yeast displaying the scFv, CD137 binding against scFv display; file 01-display-C2.fcs; antigen concentration not given. A general note: In flow cytometry, cells or beads pass a laser one at a time.
Test [2] has the same target. The test can be described thus: flow cytometry of yeast displaying the scFv, CD137 binding against scFv display; file 01-5112.2-B5.fcs; kind of statistic and antigen concentration not given; the boxed gate is set on scFv display.
The target is the same in test [3]. The test can be described thus: flow cytometry of yeast displaying the scFv, quadrant plot; the other quadrants read 0.39% (upper left), 34.3% (lower left), 3.83% (lower right).
For test [4] the target is unchanged. The experiment in a line: flow cytometry of yeast displaying the clone after TEV protease treatment, CD137 binding against the axis printed as scFv display; file 01-2328-B11.fcs; antigen concentration not given.
Test [5] has the same target. The experiment in a line: flow cytometry of yeast displaying the scFv clone after TEV protease treatment, CD137 binding against scFv display; file 01-2317-B8.fcs; antigen concentration not given.

Sequence of CD137 antigen used to stain yeast (human) (Q07011 24-186 limits assumed): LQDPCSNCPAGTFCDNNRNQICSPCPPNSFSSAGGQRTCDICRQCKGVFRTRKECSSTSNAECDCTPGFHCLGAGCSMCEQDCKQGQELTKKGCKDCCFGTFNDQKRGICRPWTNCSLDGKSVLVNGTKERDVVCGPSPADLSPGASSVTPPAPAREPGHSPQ

B1: scFv of TY21242 displayed on yeast (scFv, part only; not given: scFv linker, Aga2, tag, V domains shown, not shown: another chain or arm of the molecule; large carriers; small tags and cut ends)
VL: DIQLTQSPSSLSASVGDRVTITCRASQSIGSYLAWYQQKPGKAPKLLIYDASNLETGVPSRFSGSGSGTDFTLTISSLQPEDFATYYCQQGYYLWTFGQGTKVEIK
VH: EVQLVESGGGLVQPGGSLRLSCAASGFSLSTGGVGVGWIRQAPGKGLEWLALIDWADDKYYSPSLKSRLTISRDNSKNTLYLQLNSLRAEDTAVYYCARGGSDTVIGDWFAYWGQGTLVTVSS
In the case of B1, the Y (signal on the CD137 binding axis, FL2-A :: PE-A) turned out to be 27800 in test [1] and 19200 in test [2]. In test [3], this molecule displayed a percent of cells in the upper right quadrant (scFv display positive and CD137 binding positive) of 61.4%.

B2: CD137 activatable antibody clone B13439 (scFv on yeast, masking peptide cleaved by TEV protease) (scFv, part only; not given: cleavage stub, scFv linker, Aga2, tag, V domains shown, not shown: another chain or arm of the molecule; large carriers; small tags and cut ends)
VL: B1 VL
VH: B1 VH
In the case of B2, the Y (signal on the CD137 binding axis, FL2-A :: PE-A) in test [4] came out at 7270.

B3: CD137 activatable antibody clone B13428 (scFv on yeast, masking peptide cleaved by TEV protease) (scFv, part only; not given: cleavage stub, scFv linker, Aga2, V domains shown, not shown: another chain or arm of the molecule; large carriers; small tags and cut ends)
VL: B1 VL
VH: B1 VH
B3 yielded a Y (signal on the CD137 binding axis, FL2-A :: PE-A) in test [5] of 10100.

Values taken from US20210207126A1.
